Laboratory results from patent US20190225669A1 (ACCELERON PHARMA, published 2019).
Where two headings read alike, the source gives them in different places.

T1: BMPRII-Fc homodimer (UniProt Q13873 27-150)
T1 construct: extracellular domain
T1 sequence (looked up): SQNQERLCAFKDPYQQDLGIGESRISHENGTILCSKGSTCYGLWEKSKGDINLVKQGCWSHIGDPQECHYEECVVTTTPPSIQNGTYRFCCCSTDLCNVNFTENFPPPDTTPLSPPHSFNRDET

T2: TGFβ2 (human, UniProt P61812 303-414)
T2 construct: Human (PeproTech) is stated for the A549 reporter assay; also called TGF-beta2
T2 sequence (looked up): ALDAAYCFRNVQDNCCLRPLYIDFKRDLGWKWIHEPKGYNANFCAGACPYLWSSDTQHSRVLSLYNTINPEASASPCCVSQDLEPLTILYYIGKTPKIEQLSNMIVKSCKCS

T3: TGFβ3 (human, UniProt P10600 301-412)
T3 construct: Human (PeproTech) is stated for the A549 reporter assay; also called TGF-beta3
T3 sequence (looked up): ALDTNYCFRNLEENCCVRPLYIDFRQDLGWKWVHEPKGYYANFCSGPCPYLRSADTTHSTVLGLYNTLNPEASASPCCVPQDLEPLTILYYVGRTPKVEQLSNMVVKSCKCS

T4: BMP10 (UniProt O95393 317-424)
T4 sequence (looked up): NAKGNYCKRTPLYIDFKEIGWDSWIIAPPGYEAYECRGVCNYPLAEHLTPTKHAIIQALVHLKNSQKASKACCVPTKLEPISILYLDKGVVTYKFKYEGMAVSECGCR

T5: BMP9 (UniProt Q9UK05 320-429)
T5 construct: also called GDF2
T5 sequence (looked up): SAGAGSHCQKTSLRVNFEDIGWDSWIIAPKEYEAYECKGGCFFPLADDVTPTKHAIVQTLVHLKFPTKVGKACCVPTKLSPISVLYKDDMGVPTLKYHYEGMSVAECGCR


Columns and labels:
[1] = target: T6, ALK3-Fc homodimer (UniProt P36894 24-152); test: Biacore SPR
T6 construct: extracellular domain
T6 sequence (P36894 24-152): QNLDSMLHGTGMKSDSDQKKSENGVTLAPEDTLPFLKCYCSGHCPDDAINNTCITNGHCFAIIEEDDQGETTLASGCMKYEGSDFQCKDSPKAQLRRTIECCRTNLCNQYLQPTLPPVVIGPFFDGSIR
Protocol: (§1) Ligands were injected and allowed to flow over the captured receptor protein.

[2] = target: T6, ALK3-Fc homodimer; test: Biacore SPR; remark: listed apart in the source
Protocol: as §1

[3] = target: T1, BMPRII-Fc homodimer; test: Biacore SPR; kinetics indeterminate (transient)
[4] = target: T2, TGFβ2; test: Biacore SPR; * low signal
Protocol: (§2) The heteromeric or homomeric protein complexes were independently captured onto the system using an anti-Fc antibody. Ligands were injected and allowed to flow over the captured receptor protein.

[5] = target: T7, TGFβ1 (human, UniProt P01137 279-390); test: Biacore SPR; * low signal
T7 construct: Human (PeproTech) is stated for the A549 reporter assay; also called TGF-beta1
T7 sequence (P01137 279-390 limits assumed): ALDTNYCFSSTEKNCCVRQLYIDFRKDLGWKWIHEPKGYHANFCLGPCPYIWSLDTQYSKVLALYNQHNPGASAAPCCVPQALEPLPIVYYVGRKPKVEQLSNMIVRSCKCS
Protocol: as §2

[6] = target: T3, TGFβ3; test: Biacore SPR; * low signal
Protocol: as §2

[7] = target: T4, BMP10; test: Biacore SPR
[8] = target: T5, BMP9; test: Biacore SPR
[9] = target: T2, TGFβ2; test: cell-based or functional assay
[10] = target: T7, TGFβ1; test: cell-based or functional assay
[11] = target: T3, TGFβ3; test: cell-based or functional assay
[12] = target: T2, TGFβ2; test: Biacore SPR

| Kd [4] | koff [4] | kon [4] | Kd [5] | koff [5] | kon [5] | Kd [6] | koff [6] | kon [6] | binding result [7] | binding result [8] | IC50 (pM), CAGA12-luciferase reporter gene assay in A549 cells, TGFβ2 at 480 pg/mL [9] | IC50 (pM), CAGA12-luciferase reporter gene assay in A549 cells, TGFβ1 at 640 pg/mL [10] | IC50 (pM), CAGA12-luciferase reporter gene assay in A549 cells, TGFβ3 at 270 pg/mL [11] | Binder | also measured |
| --- | --- | --- | --- | --- | --- | --- | --- | --- | --- | --- | --- | --- | --- | --- | --- |
|  |  |  |  |  |  |  |  |  |  |  |  |  |  | GDF6 (ligand, UniProt Q6KF10 336-455, looked up, also called BMP13) TAFASRHGKRHGKKSRLRCSKKPLHVNFKELGWDDWIIAPLEYEAYHCEGVCDFPLRSHLEPTNHAIIQTLMNSMDPGSTPPSCCVPTKLTPISILYIDAGNNVVYKQYEDMVVESCGCR | Kd [1]: 40000 pM; koff [1]: 0.0013 s⁻¹; kon [1]: 34000 M⁻¹ s⁻¹; Kd [2]: 40000 pM; koff [2]: 0.0013 s⁻¹; kon [2]: 34000 M⁻¹ s⁻¹; Kd [3]: > 88000 pM |
| 0.4 pM | 2.9e-06 s⁻¹ | 6.6e+06 M⁻¹ s⁻¹ | 12 pM | 0.0017 s⁻¹ | 1.4e+08 M⁻¹ s⁻¹ | 38 pM | 0.001 s⁻¹ | 2.7e+07 M⁻¹ s⁻¹ | no binding | no binding | ~200 pM | < 350 pM | < 90 pM | TGFβRIISHORT-Fc:ALK5-Fc heterodimer (Fc fusion, also called TGFβRIISHORT:ALK5-Fc Heterodimer; TGFβRII-Fc:ALK5-Fc heterodimer (short isoform)) chain 1: TIPPHVQKSVNNDMIVTDNNGAVKFPQLCKFCDVRFSTCDNQKSCMSNCSITSICEKPQEVCVAVWRKNDENITLETVCHDPKLPYHDFILEDAASPKCIMKEKKKPGETFFMCSCSSDECNDNIIFSEEYNTSNPDTGGGTHTCPPCPAPELLGGPSVFLFPPKPKDTLMISRTPEVTCVVVDVSHEDPEVKFNWYVDGVEVHNAKTKPREEQYNSTYRVVSVLTVLHQDWLNGKEYKCKVSNKALPAPIEKTISKAKGQPREPQVYTLPPSRKEMTKNQVSLTCLVKGFYPSDIAVEWESNGQPENNYKTTPPVLKSDGSFFLYSKLTVDKSRWQQGNVFSCSVMHEALHNHYTQKSLSLSPGK chain 2: ALLPGATALQCFCHLCTKDNFTCVTDGLCFVSVTETTDKVIHNSMCIAEIDLIPRDRPFVCAPSSKTGSVTTTYCCNQDHCNKIELPTTVKSSPGLGPVETGGGTHTCPPCPAPELLGGPSVFLFPPKPKDTLMISRTPEVTCVVVDVSHEDPEVKFNWYVDGVEVHNAKTKPREEQYNSTYRVVSVLTVLHQDWLNGKEYKCKVSNKALPAPIEKTISKAKGQPREPQVYTLPPSREEMTKNQVSLTCLVKGFYPSDIAVEWESNGQPENNYDTTPPVLDSDGSFFLYSDLTVDKSRWQQGNVFSCSVMHEALHNHYTQKSLSLSPG |  |
| 0.07 pM | 2.8e-07 s⁻¹ | 4.2e+06 M⁻¹ s⁻¹ | 14 pM | 0.00092 s⁻¹ | 6.6e+07 M⁻¹ s⁻¹ | 38 pM | 0.001 s⁻¹ | 2.7e+07 M⁻¹ s⁻¹ | no binding | no binding | 154 pM | 204 pM | 35 pM | TGFβRIILONG-Fc:ALK5-Fc heterodimer (Fc fusion, also called TGFβRII-Fc:ALK5-Fc heterodimer (long isoform)) chain 1: TIPPHVQKSDVEMEAQKDEIICPSCNRTAHPLRHINNDMIVTDNNGAVKFPQLCKFCDVRFSTCDNQKSCMSNCSITSICEKPQEVCVAVWRKNDENITLETVCHDPKLPYHDFILEDAASPKCIMKEKKKPGETFFMCSCSSDECNDNIIFSEEYNTSNPDTGGGTHTCPPCPAPELLGGPSVFLFPPKPKDTLMISRTPEVTCVVVDVSHEDPEVKFNWYVDGVEVHNAKTKPREEQYNSTYRVVSVLTVLHQDWLNGKEYKCKVSNKALPAPIEKTISKAKGQPREPQVYTLPPSRKEMTKNQVSLTCLVKGFYPSDIAVEWESNGQPENNYKTTPPVLKSDGSFFLYSKLTVDKSRWQQGNVFSCSVMHEALHNHYTQKSLSLSPGK chain 2: ALLPGATALQCFCHLCTKDNFTCVTDGLCFVSVTETTDKVIHNSMCIAEIDLIPRDRPFVCAPSSKTGSVTTTYCCNQDHCNKIELPTTVKSSPGLGPVETGGGTHTCPPCPAPELLGGPSVFLFPPKPKDTLMISRTPEVTCVVVDVSHEDPEVKFNWYVDGVEVHNAKTKPREEQYNSTYRVVSVLTVLHQDWLNGKEYKCKVSNKALPAPIEKTISKAKGQPREPQVYTLPPSREEMTKNQVSLTCLVKGFYPSDIAVEWESNGQPENNYDTTPPVLDSDGSFFLYSDLTVDKSRWQQGNVFSCSVMHEALHNHYTQKSLSLSPG | affinity ratio against TGFβRII-Fc homodimer [12]: ~100000 fold; off-rate ratio against TGFβRII-Fc homodimer [12]: ~10000 fold |
